# According to patent US20240382677A1:
# Where a chain is given by its changes, count along the chain named.
# B1: H2aM7791N (antibody, mouse IgG2a, V domains shown)
# VH: QMQLQQWGAGLLKPSETLSLTCVVYGGSLNGYYWSWIRQSPGKGLEWIGEIDHSGSTNYNPSLKNRVTMSVDTSKIQFSLKLTSVTVADTAVYYCAREGLLPFDYWGQGTLVTVSS
# VL: EIVLTQSPGTLSLSPGERVTLSCRASQSVYSNYLAWYQQNPGQAPRLLIYAASNRATGIPDRFSGSGSGTDFTLTISRLEPEDFAVYYCHQYATSPWTFGQGTKVEIK
# B2: H1M7789N (antibody, mouse IgG1, V domains shown)
# VH: EVQLLESGGGLVQPGGSLRLSCSASGFTFSSYTMNWVRQAPGKGLEWVSGISDTGGNTYYTDSVKGRFTVSRDNSKNTLSLQMNSLRAEDTAVYYCAKDQGGSYPYYFHYWGQGSLVTVSS
# VL: DIQMTQSPSSLSASVGDRVTITCRASQSISSYLIWYQQKPGTAPKFLIYAASSLQSGVPSRFSGCGSGTDFTLTISSLQPEDFATYYCQQSYSTPPITFGQGTRLEIK
# B3: H2aM7780N (antibody, mouse IgG2a, V domains shown)
# VH: QVQLVESGGGVVQSGRSLRLSCAASGFTFSSYGMHWVRQAPGKGLEWVAVIWYDGSNIYYSDSVKGRFTISRANSKNTLYLQMNSLRAEDTAVYYCARPGHWNYFFEYWGQGTLVTVSS
# VL: B2 VL with S30N, S31N, I34N, T42K, F46L, A50T, C65S, I97L, R104Q
# B4: H2aM7796N (antibody, mouse IgG2a, V domains shown)
# VH: QVQLVESGGGVVQPGRSLRLSCAASGFTFSSYGMHWVRQAPGKGLEWVAIIWSDGDSEYNLDSVKGRFTISRDNSKNTLYLQMNSLRVEDSAVYYCARDRDLEDIWGQGTMVTVSS
# VL: DIQMTQSPSSLSASVGDRVTITCRASQGIRNDLGWYQQKPGKAPKRLIYAASNLQSGVPSRFSGSGSGTEFTLTISSLQPEDFATYYCLQHNSYPLTFGGGTKVEIK
# B5: H2aM7795N (antibody, mouse IgG2a, V domains shown)
# VH: EVQVVESGGGLVEPGRSLRLSCKASGFTFDDYAMHWVRQTPGKALEWVSGINWSGNNIGYADSVKGRFTISKDDAKNSLYLQMNSLRPEDTALYYCTKDISITGTLDAFDVWGQGTMVTVSS
# VL: DIQMTQSPISVSASVGDRVTITCRASQGISNWLAWYQQKPGIAPKLLIYSASSLQSGVPSRFRGSGSGTDFTLTIGSLQPEDFATYYCQQAHSFPLTFGGGTKVEIK
# B6: H4H7795N2 (antibody, human IgG4 S228P, kappa, V domains shown)
# VH: B5 VH with N52S
# VL: DIQMTQSPISVSASVGDRVTITCRASQGISNWLAWYQQKPGIAPKLLIYSASSLQSGVPSRFRGSGSGTDFTLTIGSLQPEDFATYYCQQAHSFPLTFGGGTKVEIKR
# B7: H2aM7798N (antibody, mouse IgG2a, V domains shown)
# VH: EVQLLESGGVLVQPGGSLRLSCAASGFTFSNFGMTWVRQAPGKGLEWVSGISGGGRDTYFADSVKGRFTISRDNSKNTLYLQMNSLKGEDTAVYYCVKWGNIYFDYWGQGTLVTVSS
# VL: DIQMTQSPSSLSASVGDSITITCRASLSINTFLNWYQQKPGKAPNLLIYAASSLHGGVPSRFSGSGSGTDFTLTIRTLQPEDFATYYCQQSSNTPFTFGPGTVVDFR
# B8: H4H7798N (antibody, human IgG4 S228P, kappa, V domains shown)
# VH: B7 VH
# VL: DIQMTQSPSSLSASVGDSITITCRASLSINTFLNWYQQKPGKAPNLLIYAASSLHGGVPSRFSGSGSGTDFTLTIRTLQPEDFATYYCQQSSNTPFTFGPGTVVDFRR
# Assays:
# [1] = biological target: full length human PD-1 on HEK293/hPD-1 cells (human); assay: FACS dose response, HEK293/hPD-1 cells; No EC50 determined
# [2] = biological target: full length human PD-1 on HEK293/hPD-1 cells (human); assay: FACS, 100 nM antibody, HEK293/hPD-1 cells
# [3] = biological target: full length human PD-1 on HEK293/hPD-1 cells (human); assay: FACS, 100 nM antibody
# [4] = biological target: full length human PD-1 on HEK293/hPD-1 cells (human); assay: FACS dose response, HEK293/hPD-1 cells; EC50 Inconclusive
# [5] = biological target: full length human PD-1 on HEK293/hPD-1 cells (human); assay: FACS dose response, HEK293/hPD-1 cells
Binder,Max Geom. Mean MFI @ 100 nM [1],MFI [2],ratio of HEK293/hPD-1 to HEK293 parental cells [3],Max Geom. Mean MFI @ 100 nM [4],EC50 [5],Max Geom. Mean MFI @ 100 nM [5]
B1,1400 MFI,4950 MFI,18 fold,,,
B2,,24200 MFI,92.3 fold,35600 MFI,,
B3,,23700 MFI,73.8 fold,,1.69 nM,18400 MFI
B4,624 MFI,49800 MFI,168 fold,,4.81 nM,14100 MFI
B5,,817 MFI,2.8 fold,,,
B6,,,,15200 MFI,,
B7,,23400 MFI,78.1 fold,,0.0698 nM,20900 MFI
B8,,,,,0.509 nM,20300 MFI
